The values that follow come from PMC5879678 (Proceedings of the National Academy of Sciences of the …, 2018).

The stoichiometry N is a count of units in the complex or per binding partner.

The data set “AUC” deals with the molecule itself. Description: AUC.
Data set [1] concerns the molecule itself. The data set is described as follows: Thioflavin T fluorescence.

B1: TasA261 (mature secreted TasA, amino acids 28-261) (natural protein, Bacillus subtilis, UniProt P54507 28-261, looked up)
chain: AFNDIKSKDATFASGTLDLSAKENSASVNLSNLKPGDKLTKDFQFENNGSLAIKEVLMALNYGDFKANGGSNTSPEDFLSQFEVTLLTVGKEGGNGYPKNIILDDANLKDLYLMSAKNDAAAAEKIKKQIDPKFLNASGKVNVATIDGKTAPEYDGVPKTPTDFDQVQMEIQFKDDKTKDEKGLMVQNKYQGNSIKLQFSFEATQWNGLTIKKDHTDKDGYVKENEKAHSEDKN
modifications: 2H,13C,15N isotope labelling in the NMR samples
In the case of B1, the “stoichiometry N” value in the data set “AUC” is 12.

B2: TasA239 (TasA core domain, amino acids 28-239) (domain or fragment, Bacillus subtilis, UniProt P54507 28-239, looked up)
chain: AFNDIKSKDATFASGTLDLSAKENSASVNLSNLKPGDKLTKDFQFENNGSLAIKEVLMALNYGDFKANGGSNTSPEDFLSQFEVTLLTVGKEGGNGYPKNIILDDANLKDLYLMSAKNDAAAAEKIKKQIDPKFLNASGKVNVATIDGKTAPEYDGVPKTPTDFDQVQMEIQFKDDKTKDEKGLMVQNKYQGNSIKLQFSFEATQWNGLTIK
modifications: 2H,15N,13C isotope labelling in the NMR samples
For the protein B2, the binding result in data set [1] was “binds”.
